Several values for one entry are separate records, joined by “and”; a condition that tells them apart may be missing. Equal entries are not always repeated. Where two headings read alike, the source gives them in different places.
B1: mAb 236 (antibody, V domains shown)
VH: QVQLVQSGAEVKKPGASVKVSCKASGGTFTSYGINWVRQAPGQGLEWMGWMNPNSGNTGYAQKFQGRVTMTRDTSTSTVYMELSSLRSEDTAVYYCASRGIQLLPRGMDVWGQGTTVTVSS
VL: not shown
notes: also called IgG 236; Antibody 236
B2: mAb 120 (antibody, V domains shown)
VH: QVQLVQSGAEVKKPGASVKVSCKASGYTFTSYDINWVRQAPGQGLEWMGMIDPSGGSTSYAQKFQGRVTMTRDTSTSTVYMELSSLRSEDTAVYYCAKDFGGGTRYDYWYFDLWGRGTLVTVSS
VL: EIVMTQSPATLSVSPGERATLSCRASQSVSSRYLAWYQQKPGQAPRLLIYGASTRATGIPARFSGSGSGTEFTLTISSLQSEDFAVYYCQQYYTTPRTFGQGTRLEIKR
notes: also called IgG 120; Antibody 120
B3: mAb 254 (antibody, V domains shown)
VH: EVQLLESGGGLVQPGGSLRLSCAASGFTFSSSAMHWVRQAPGKGLEWVSAIGTGGDTYYADSVKGRFTISRDNSKNTLYLQMNSLRAEDTAVYYCAREGDGYNFYFDYWGQGTLVTVSS
VL: DIQMTQSPSSLSASVGDRVTITCRASQGISSYLAWYQQKPGKAPKLLIYDASSLQIGVPSRFSGSGSGTDFTLTISSLQPEDFATYYCLQSYSTPPWTFGQGTKVEIKR
notes: also called IgG 254; Antibody 254
B4: mAb 192 (antibody, V domains shown)
VH: QVQLVQSGAEVKKPGSSVKVSCKASGGTFSSYAISWVRQAPGQGLEWMGWINPNSGGANYAQKFQGRVTITADESTSTAYMELSSLRSEDTAVYYCSTYYYDSSGYSTDYWGQGTLVTVSS
VL: DIVMTQSPLSLPVTPGEPASISCRSSQSLLHSNGYNYLDWYLQKPGQSPQLLIYAASSLQSGVPDRFSGSGSGTDFTLKISRVEAEDVGVYYCMQALQTPYTFGQGTKLEIKR
B5: mAb 180 (antibody, V domains shown)
VH: QVQLVQSGAEVKKPGSSVKVSCKASGYTFTSYAMHWVRQAPGQGLEWMGRISPRSGGTKYAQRFQGRVTITADESTSTAYMELSSLRSEDTAVYYCAREAVAGTHPQAGDFDLWGRGTLVTVSS
VL: DIVMTQSPLSLPVTPGEPASISCRSSQSLLHSNGYNYLDWYLQKPGQSPQLLIYAASSLQSGVPDRFSGSGSGTDFTLKISRVEAEDVGVYYCQQYYSSPYTFGQGTKLEIKR
B6: mAb 52 (antibody, V domains shown)
VH: QVQLVQSGAEVKKPGSSVKVSCKASGYTFTSYGISWVRQAPGQGLEWMGGIIPMFGTTNYAQKFQGRVTITADKSTSTAYMELSSLRSEDTAVYYCARDRGDTIDYWGQGTLVTVSS
VL: DIQMTQSPSSLSASVGDRVTITCRASQGISNNLNWYQQKPGKAPKLLIYAASSLESGVPSRFSGSGSGTDFTLTISSLQPEDFATYYCQQGNGFPLTFGPGTKVDIKR
notes: also called IgG 52; Antibody 52
B7: mAb 178 (antibody, V domains shown)
VH: QVQLVQSGAEVKKPGASVKVSCKASGYTFTDYHMHWVRQAPGQGLEWMGWINPNSGGTNYAQKFQGRVTMTRDTSTSTVYMELSSLRSEDTAVYYCARDISSWYEITKFDPWGQGTLVTVSS
VL: EIVMTQSPATLSVSPGERATLSCKASQSVSGTYLAWYQQKPGQAPRLLIYGASTRATGIPARFSGSGSGTEFTLTISSLQSEDFAVYYCLQTHSYPPTFGQGTKVEIKR
notes: also called IgG 178; Antibody 178
B8: mAb 368 (antibody, V domains shown)
VH: QVQLVQSGAEVKKPGSSVKVSCKASGYTFTSYDINWVRQAPGQGLEWMGAIMPMFGTANYAQKFQGRVTITADESTSTAYMELSSLRSEDTAVYYCARGSSGYYYGWGQGTLVTVSS
VL: not shown
B9: 4A8 IgG (antibody, V domains shown)
VH: EVQLVESGAEVKKPGASVKVSCKVSGYTLTELSMHWVRQAPGKGLEWMGGFDPEDGETMYAQKFQGRVTMTEDTSTDTAYMELSSLRSEDTAVYYCATSTAVAGTPDLFDYYYGMDVWGQGTTVTVSS
VL: EIVMTQSPLSSPVTLGQPASISCRSSQSLVHSDGNTYLSWLQQRPGQPPRLLIYKISNRFSGVPDRFSGSGAGTDFTLKISRVEAEDVGVYYCTQATQFPYTFGQGTKVDIK
notes: also called IgG 4A8
B10: mAb 349 (antibody, V domains shown)
VH: EVQLLESGGGLVQPGGSLRLSCAASGFTFSNYGMHWVRQAPGKGLEWVSGISSAGSITNYADSVKGRFTISRDNSKNTLYLQMNSLRAEDTAVYYCAGNHAGTTVTSEYFQHWGQGTLVTVSS
VL: DIQMTQSPSSLSASVGDRVTITCRASQSISSWLAWYQQKPGKAPKLLIYDTSNLETGVPSRFSGSGSGTDFTLTISSLQPEDFATYYCQQSYTTPWTFGQGTRLEIKR
notes: also called IgG 349; Antibody 349
B11: mAb 46 (antibody, V domains shown)
VH: EVQLLESGGGLVQPGRSLRLSCAASGFTFSSYAMSWVRQAPGKGLEWVSTIYSGGSTYYADSVKGRFTISRDNSKNTLYLQMNSLRAEDTAVYYCARGDSRDAFDIWGQGTMVTVSS
VL: DIQMTQSPSSLSASVGDRVTITCRASQSISSWLAWYQQKPGKAPKLLIYDASNLETGVPSRFSGSGSGTDFTLTISSLQPEDFATYYCQQSYSTPFTFGPGTKVDIKR
notes: also called IgG 46; Antibody 46
B12: mAb 108 (antibody, V domains shown)
VH: QVQLVQSGAEVKKPGASVKVSCKASGYIFSRYAIHWVRQAPGQGLEWMGWMNPISGNTDYAPNFQGRVTMTRDTSTSTVYMELSSLRSEDTAVYYCAKDGSQLAYLVEYFQHWGQGTLVTVSS
VL: DIQMTQSPSSLSASVGDRVTITCRASQVITNNLAWYQQKPGKAPKLLIYDASTLETGVPSRFSGSGSGTDFTLTISSLQPEDFATYYCQQSYTFPYTFGQGTKVEIKR
B13: mAb 160 (antibody, V domains shown)
VH: QVQLVQSGAEVKKPGASVKVSCKASGYTFTGHDMHWVRQAPGQGLEWMGIINPSGGSTSYAQKFQGRVTMTRDTSTSTVYMELSSLRSEDTAVYYCARANSLRYYYGMDVWGQGTMVTVSS
VL: DIQMTQSPSSLSASVGDRVTITCRASQSVSSWLAWYQQKPGKAPKLLIYAASSLQSGVPSRFSGSGSGTDFTLTISSLQPEDFATYYCQQGYTTPYTFGQGTKLEIKR
notes: also called IgG 160; Antibody 160
B14: mAb 128 (antibody, V domains shown)
VH: QVQLVQSGAEVKKPGASVKVSCKASGYTFTHYYMHWVRQAPGQGLEWMGIINPSSSSASYSQKFQGRVTMTRDTSTSTVYMELSSLRSEDTAVYYCARDGRYGSGSYPFDYWGQGTLVTVSS
VL: DIQMTQSPSSLSASVGDRVTITCRASQNISRYLNWYQQKPGKAPKLLIYDASNLETGVPSRFSGSGSGTDFTLTISSLQPEDFATYYCQQANGFPPTFGQGTKLEIKR
B15: mAb 64 (antibody, V domains shown)
VH: EVQLLESGGGLVQPGGSLRLSCAASGFPFSQHGMHWVRQAPGKGLEWVSAIDRSGSYIYYADSVKGRFTISRDNSKNTLYLQMNSLRAEDTAVYYCARDTYGGKVTYFDYWGQGTLVTVSS
VL: DIQMTQSPSSLSASVGDRVTITCRASQGISSHLAWYQQKPGKAPKLLIYDASNLETGVPSRFSGSGSGTDFTLTISSLQPEDFATYYCQQTYSTPWTFGQGTKVEIKR
notes: also called IgG 64; Antibody 64
B16: mAb 158 (antibody, V domains shown)
VH: QVQLVQSGAEVKKPGASVKVSCKASGYTFTGYYMHWVRQAPGQGLEWMGWINPLNGGTNFAPKFQGRVTMTRDTSTSTVYMELSSLRSEDTAVYYCARDPGGSYSNDAFDIWGQGTLVTVSS
VL: DIQMTQSPSSLSASVGDRVTITCRASQSISRYLNWYQQKPGKAPKLLIYDASNLESGVPSRFSGSGSGTDFTLTISSLQPEDFATYYCQQANSFPLTFGGGTKVDIKR
notes: also called IgG 158; Antibody 158
B17: mAb 82 (antibody, V domains shown)
VH: QVQLVQSGAEVKKPGASVKVSCKASGGSFSTSAFYWVRQAPGQGLEWMGWINPYTGGTNYAQKFQGRVTMTRDTSTSTVYMELSSLRSEDTAVYYCARSRALYGSGSYFDYWGQGTLVTVSS
VL: DIQMTQSPSSLSASVGDRVTITCRASQVISNYLAWYQQKPGKAPKLLIYDASNLETGVPSRFSGSGSGTDFTLTISSLQPEDFATYYCQQSFSPPPTFGQGTRLEIKR
notes: also called IgG 82; Antibody 82
B18: mAb 56 (antibody, V domains shown)
VH: QVQLVQSGAEVKKPGASVKVSCKASGYTFTSYGISWVRQAPGQGLEWMGWISAYNGNTNYAQKLQGRVTMTRDTSTSTVYMELSSLRSEDTAVYYCARDIGPIDYWGQGTLVTVSS
VL: DIQMTQSPSSLSASVGDRVTITCRASQGISSYLAWYQQKPGKAPKLLIYDASNLQSGVPSRFSGSGSGTDFTLTISSLQPEDFATYYCQQANSFPSTFGQGTKVEIKR
notes: also called IgG 56; Antibody 56
B19: mAb 324 (antibody, V domains shown)
VH: QVQLVQSGAEVKKPGASVKVSCKASGGTFNNYGISWVRQAPGQGLEWMGWMNPNSGNTGYAQKFQGRVTMTRDTSTSTVYMELSSLRSEDTAVYYCARVGDYGDYIVSPFDLWGRGTLVTVSS
VL: DIQMTQSPSSLSASVGDRVTITCRASQSITTYLNWYQQKPGKAPKLLIYDASNLETGVPSRFSGSGSGTDFTLTISSLQPEDFATYYCQQSYSTPPTFGQGTKVEIKR
notes: also called IgG 324; Antibody 324

Key:
Assay in all cases: cell-based or functional assay
[1] = molecular target: T1, SARS-CoV-2 Spike on wild-type pseudotyped virus (PsV) (SARS-CoV-2, UniProt P0DTC2 14-1273)
[2] = molecular target: T1, SARS-CoV-2 Spike on wild-type …; remark: listed apart in the source
[3] = molecular target: Spike of authentic SARS-CoV-2/SB2-P4-PB virus (SARS-CoV-2, UniProt P0DTC2 14-1273)
[4] = molecular target: T1, SARS-CoV-2 Spike on wild-type …; remark: listed apart in the source

| Binder | Median IC50 [1] | IC50 SARS-CoV2 PsV (IgG) [2] [µg/mL] | IC50 SARS-CoV2/SB2-P4-PB (IgG) [3] [µg/mL] | Median IC50 [4] |
| --- | --- | --- | --- | --- |
| B1 | 0.057 µg/mL and 0.38 nM | 0.057 | 5.5 | – |
| B2 | > 50 µg/mL and > 333 nM | > 50 | – | – |
| B3 | > 50 µg/mL and > 333 nM | > 50 | – | – |
| B4 | > 50 µg/mL and > 333 nM | > 50 | – | – |
| B5 | > 50 µg/mL and > 333 nM | > 50 | – | – |
| B6 | 0.61 µg/mL and 4.1 nM | 0.55 | 6.2 | – |
| B7 | > 50 µg/mL and > 333 nM | > 50 | – | – |
| B8 | > 50 µg/mL and > 333 nM | > 50 | – | – |
| B9 | – | – | – | > 100 µg/mL and > 0.66 µM |
| B10 | > 50 µg/mL and > 333 nM | > 50 | – | – |
| B11 | 2.1 µg/mL and 14 nM | 2.1 | 19 | – |
| B12 | > 50 µg/mL and > 333 nM | > 50 | – | – |
| B13 | > 50 µg/mL and > 333 nM | > 50 | – | – |
| B14 | > 50 µg/mL and > 333 nM | > 50 | – | – |
| B15 | > 50 µg/mL and > 333 nM | > 50 | – | – |
| B16 | > 50 µg/mL and > 333 nM | > 50 | – | – |
| B17 | 1.6 µg/mL and 11 nM | 1.6 | – | – |
| B18 | > 50 µg/mL and > 333 nM | > 50 | – | – |
| B19 | 0.78 µg/mL and 5.2 nM | 0.78 | 21 | – |
